Several values for one entry are separate records, joined by “and”; a condition that tells them apart may be missing. Equal values may be shown once. Where no end group is shown, it is not given here. Side-chain parts run from the residue outwards. rhodamine‑labelled PEGylated perfluoro‑15‑crown‑5 ether nanoemulsion = not defined here; carboxyfluorescein = N-terminal fluorescence label (CF)
Key:
murine neutrophils [1] = experiment: Migration of murine neutrophils into Matrigel/LPS plug after mNPPFC injection; assay type: in vivo, mouse; settings: in the presence of the targeting PFCs
Experimental: […] per kg BW ^mNPPFCs or saline were injected i.v., and, after 1 h, LPS-doped Matrigel was implanted s.c. into the neck of mice. After 2 h, the Matrigel plug was excised, and infiltrated neutrophils were isolated and stained with anti-CD11b and anti-Ly6G antibodies for flow cytometry.
A total of 1 × 10^6 isolated human neutrophils were incubated with or without 50 µl ^hNPPFCs for 1 h at 37 °C in 1 ml DMEM. After washing with DMEM, 1 × 10^5 of these cells were placed in a Boyden chamber containing 200 µl DMEM. The lower part of the chamber contained 100 ng ml^−1 IL-8 in 1 ml DMEM. After 1 h in an incubator, the flow through was collected, and the number of neutrophils was counted by flow cytometry. Murine neutrophils were isolated from Matrigel–LPS plugs and stained for Ly6G. Afterward, cells were washed twice, and the number of neutrophils was determined by flow cytometry.
Extended Data Fig. 9 Impact of ^mNPPFCs on murine neutrophils. a, Differentially expressed genes (DEGs) identified by bulk RNA sequencing of murine blood neutrophils after intravenous injection of ^mNPPFCs, ^ConPFCs or NaCl (Ctrl) as control. […] In total 25655 RNA transcripts were analyzed. b, Cell surface expression of CD11b, CD62L, CD63 on blood derived murine neutrophils after intravenous application of NaCl (Ctrl) or ^mNPPFCs. […]

murine neutrophils [2] = experiment: Cell surface activation markers CD11b, CD62L, CD63 on murine blood neutrophils; assay type: in vivo, mouse; settings: mNPPFCs 1 mM per kg BW i.v., blood 2 h later; LPS = LPS-doped Matrigel s.c. 24 h before (positive control); individual experiments, only first lines of sheet shown
Experimental: […] per kg BW ^mNPPFCs or saline were injected i.v., and, 2 h later, neutrophils were isolated from the blood and stained for CD11b, CD62L and CD63. As a positive control, mice were implanted with LPS-doped Matrigel 24 h before blood withdrawal.
A total of 1 × 10^6 isolated human neutrophils were incubated with 50 µl ml^−1 ^hNPPFCs, 1 µg ml^−1 LPS or only DMEM for 1 h at 37 °C followed by intense washing with MACS buffer. Afterward, 1 × 10^5 cells were transferred into 96-well plates and stained for CD11b and CD63 (eBioscience, clone HSC6) or CD66b (eBioscience, clone G10F5) for 20 min at 4 °C. After two washing steps with MACS buffer, cells were analyzed by flow cytometry. A total of 1 × 10^5 isolated murine neutrophils were transferred into a 96-well plate and stained for CD11b, CD62L and CD63 for 20 min at 4 °C. After two washing steps with MACS buffer, cells were analyzed by flow cytometry.
Extended Data Fig. 9 Impact of ^mNPPFCs on murine neutrophils. a, Differentially expressed genes (DEGs) identified by bulk RNA sequencing of murine blood neutrophils after intravenous injection of ^mNPPFCs, ^ConPFCs or NaCl (Ctrl) as control. […] In total 25655 RNA transcripts were analyzed. b, Cell surface expression of CD11b, CD62L, CD63 on blood derived murine neutrophils after intravenous application of NaCl (Ctrl) or ^mNPPFCs. As a positive control, matrigel doped with 50 µg LPS was subcutaneously implanted into the neck of mice and after 24 h, neutrophils were isolated from the blood and analyzed by flow cytometry. c, Impact of ^mNPPFC incubation on neutrophil migration, phagocytosis and release of reactive oxygen species (ROS). Migration was determined in vivo by assessment of the infiltration of neutrophils into a matrigel/LPS plug; phagocytosis was determined by intravenous injection of FITC-labelled E.coli into mice and the subsequent removal and flow cytometric analysis of blood neutrophils; extracellular ROS were measured within the cell supernatant of blood neutrophils by oxidation of DHE (dihydroethidium) followed by UPLC analysis. […]

human neutrophils = experiment: 1H/19F MRI of human neutrophils incubated with hNPPFCs/ConPFCs (healthy and STEMI); assay type: cell-based; settings: versus ConPFC controls
Experimental: After the incubation period, cells were subjected to density gradient centrifugation to separate PFC-loaded cells from free PFCs. Afterward, samples were analyzed by MRI to determine the ^19F signal within the cell layer as described previously.
To determine PFC uptake by human neutrophils by ^19F MRI, cells were isolated from 10 ml of whole blood by density centrifugation. Subsequently, neutrophils (5 × 10^6) were resuspended in 3 ml DMEM and incubated for up to 8 h at 37 °C under constant motion with 10 µl ^hNPPFCs. Afterward, cells were centrifuged at 350g, washed three times with PBS, resuspended in 1 ml MACS buffer, purified by Percoll gradient centrifugation and analyzed by ^1H/^19F MRI.

[3] = Cryo-transmission electron microscopy of PFCs (diameter, liposomes); assay type: physicochemical; design: key: % of PFCs per 25 nm diameter class in cryo-TEM images; settings: cryo-TEM size distribution; panel C raw data, single replicates #1-#3
Experimental: PFCs were diluted with sample buffer to minimize particle aggregation and therefore enable proper size measurements, which were carried out as previously described.
Extended Data Fig. 8 Physicochemical properties and cellular uptake of ^hNPPFCs. a, Cellular uptake of ^hNPPFCs by human monocyte subsets and neutrophils: Human immune cells isolated from the blood of healthy volunteers were incubated with ^hNPPFCs. Subsequently, cells were stained with CD11b, CD14 and CD16 to differentiate between neutrophils (red), classical monocytes (gray) and non-classical monocytes (blue) and the cells were analyzed by flow cytometry. The cellular uptake of ^hNPPFCs was determined under unstimulated conditions (top) and after treatment with 1 µg/ml LPS (bottom). b, Physicochemical properties of the generated nanotracers: Characterization of size, size distribution and ζ potential of ^MalPFCs and targeting PFCs (^hNPPFCs, ^ConPFCs) by dynamic light scattering (DLS). The rhodamine fluorescence signal of the PCS was determined by IVIS imaging and the ^19F content by ^19F MRI. c-e, Cryo transmission electron microscopy of the generated nanotracers: c, Cryo transmission electron microscopy (cryo-TEM) of ^hNPPFCs and ^ConPFCs. Graphs: The diameter of the PFCs was determined manually from three images categorized into 25 nm groups. […] Data are derived from three images for ^hNPPFCs and ^ConPFCs each. d, Box plot (box and whiskers; min to max) of the diameter of ^ConPFCs/^hNPPFCs calculated from cryo-TEM images. e, Relative amount of liposomes (%) in individual cryo-TEM images. The number of PFCs and liposomes was manually determined (n = 4/5 images). Red arrows in the cryo-TEM images indicate liposomes. Data are mean values ± SD of n = 5-6 (a), n = 3-6 (b), n = 3 (c), n = 3 (d) and n = 6 (e) independent experiments; *** = p < 0.001, verified by one-way ANOVA (a). Source data

Substance	migration of murine neutrophils (murine neutrophils [1])	cell surface expression of CD11b on blood derived murine neutrophils, flow cytometry (murine neutrophils [2])	cell surface expression of CD62L on blood derived murine neutrophils, flow cytometry (murine neutrophils [2])	cell surface expression of CD63 on blood derived murine neutrophils, flow cytometry (murine neutrophils [2])	19F signal of human neutrophils exposed to PFCs (1H/19F MRI) (human neutrophils)	share of particles in size class 0-25 [3]	share of particles in size class 25-50 [3]	share of particles in size class 50-75 [3]	share of particles in size class 75-100 [3]	share of particles in size class 100-125 [3]	share of particles in size class 125-150 [3]	share of particles in size class 150-175 [3]	share of particles in size class 175-200 [3]
mNPPFCs: PEGylated rhodamine-labeled perfluoro-15-crown-5 ether nanoemulsion (maleimide PFCs) coupled with murine neutrophil-specific peptide mNP (carboxyfluorescein-DFYKPMPNLRITGGGC([maleimide‑PEG2000‑DSPE-rhodamine‑labelled PEGylated perfluoro‑15‑crown‑5 ether nanoemulsion]); reading uncertain; also: printed as DFYKPMPNLRIT-GGG-C)	unaltered	2655 and 2691 and 3361 and 1842	1971 and 1966 and 1558 and 2425	135 and 126 and 105									
hNPPFCs: PEGylated rhodamine-labeled perfluorocarbon nanoemulsion coupled with human neutrophil-specific peptide hNP (carboxyfluorescein-DLVTSKLQVGGGC; also: C-terminal Cys coupled via maleimide-PEG2000-DSPE to rhodamine-labelled perfluorocarbon nanoemulsion)					significantly stronger	0	26.2295 and 23.5714 and 28.5714	45.9016 and 51.4286 and 42.0635	21.3115 and 20 and 23.8095	6.557 and 5 and 5.556	0	0	0

From PMC11357992, “Non-invasive mapping of systemic neutrophil dynamics upon cardiovascular injury” (Nature Cardiovascular Research, 2023)
